To fix the notation:
T1: recombinant human FGF23 (R179Q) (human, UniProt Q9GZV9 25-251)
T1 construct: also called rhFGF23(R179Q); hFGF23(R179Q)
T1 sequence (looked up): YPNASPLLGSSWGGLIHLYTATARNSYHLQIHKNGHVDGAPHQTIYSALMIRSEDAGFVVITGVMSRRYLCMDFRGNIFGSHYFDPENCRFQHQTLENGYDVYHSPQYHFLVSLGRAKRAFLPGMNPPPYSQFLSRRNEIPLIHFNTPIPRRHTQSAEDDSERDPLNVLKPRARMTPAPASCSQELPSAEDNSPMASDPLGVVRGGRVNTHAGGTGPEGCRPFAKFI

B1: Burosumab (antibody, human IgG1, kappa, V domains shown)
VH: QVQLVQSGAEVKKPGASVKVSCKASGYTFTNHYMHWVRQAPGQGLEWMGIINPISGSTSNAQKFQGRVTMTRDTSTSTVYMELSSLRSEDTAVYYCARDIVDAFDFWGQGTMVTVSS
VL: AIQLTQSPSSLSASVGDRVTITCRASQGISSALVWYQQKPGKAPKLLIYDASSLESGVPSRFSGSGSGTDFTLTISSLQPEDFATYYCQQFNDYFTFGPGTKVDIKR
notes: Recombinant human IgG1 kappa; also called burosumab-twza; parental burosumab
B2: UGX165 (antibody, human IgG1, kappa, V domains shown)
VH: B1 VH with S59V
VL: B1 VL
notes: also called HC:S59V
B3: UGX188 (antibody, human IgG1, kappa, V domains shown)
VH: B1 VH with S57E, S59D
VL: B1 VL
notes: also called HC:S57E, HC:S59D
B4: UGX133 (antibody, human IgG1, kappa, V domains shown)
VH: B1 VH
VL: B1 VL with S53Y
notes: also called UGX022; LC:S53Y
B5: UGX146 (antibody, human IgG1, kappa, V domains shown)
VH: B1 VH
VL: B1 VL with Y94F
notes: also called LC:Y94F
B6: UGX130 (antibody, human IgG1, kappa, V domains shown)
VH: B1 VH
VL: B1 VL with S53E
notes: also called LC:S53E
B7: UGX159 (antibody, human IgG1, kappa, V domains shown)
VH: B1 VH with S59E
VL: B1 VL
notes: also called HC:S59E
B8: UGX190 (antibody, human IgG1, kappa, V domains shown)
VH: B1 VH with S59T, V101L
VL: B1 VL
notes: also called HC:S59T, HC:V101L
B9: UGX127 (antibody, human IgG1, kappa, V domains shown)
VH: B1 VH
VL: B1 VL with S52E
notes: also called UGX017; LC:S52E
B10: UGX160 (antibody, human IgG1, kappa, V domains shown)
VH: B1 VH with S59F
VL: B1 VL
notes: also called UGX066; HC:S59F
B11: UGX152 (antibody, human IgG1, kappa, V domains shown)
VH: B1 VH with N31Q
VL: B1 VL
notes: also called HC:N31Q
B12: UGX164 (antibody, human IgG1, kappa, V domains shown)
VH: B1 VH with S59T
VL: B1 VL
notes: also called HC:S59T
B13: UGX178 (antibody, human IgG1, kappa, V domains shown)
VH: B1 VH with N31F, S59F
VL: B1 VL
notes: also called HC:N31F, HC:S59F
B14: UGX192 (antibody, human IgG1, kappa, V domains shown)
VH: B1 VH with N52F, V101I
VL: B1 VL
notes: also called HC:N52F, HC:V101I
B15: UGX162 (antibody, human IgG1, kappa, V domains shown)
VH: B1 VH with S59L
VL: B1 VL
notes: also called HC:S59L
B16: UGX148 (antibody, human IgG1, kappa, V domains shown)
VH: B1 VH with T30F
VL: B1 VL
notes: also called HC:T30F
B17: UGX135 (antibody, human IgG1, kappa, V domains shown)
VH: B1 VH
VL: B1 VL with N92D
notes: also called LC:N92D
B18: UGX151 (antibody, human IgG1, kappa, V domains shown)
VH: B1 VH with N31F
VL: B1 VL
notes: also called HC:N31F
B19: UGX161 (antibody, human IgG1, kappa, V domains shown)
VH: B1 VH with S59I
VL: B1 VL
notes: also called HC:S59I
B20: UGX153 (antibody, human IgG1, kappa, V domains shown)
VH: B1 VH with N31R
VL: B1 VL
notes: also called HC:N31R
B21: UGX117 (antibody, human IgG1, kappa, V domains shown)
VH: B1 VH
VL: B1 VL with V34I
notes: also called LC:V34I
B22: UGX166 (antibody, human IgG1, kappa, V domains shown)
VH: B1 VH with S59Y
VL: B1 VL
notes: also called UGX068; HC:S59Y
B23: UGX140 (antibody, human IgG1, kappa, V domains shown)
VH: B1 VH
VL: B1 VL with D93F
notes: also called UGX039; LC:D93F
B24: UGX131 (antibody, human IgG1, kappa, V domains shown)
VH: B1 VH
VL: B1 VL with S53F
notes: also called LC:S53F
B25: UGX137 (antibody, human IgG1, kappa, V domains shown)
VH: B1 VH
VL: B1 VL with N92F
notes: also called UGX035; LC:N92F

Consider 25 molecules from patent publication US20260250371A1 (ULTRAGENYX PHARMACEUTICAL, published 2026).

Numbering of substitutions follows the chain as printed. Names and notes keep the numbering of the source. Values joined by “and” are separate entries in the source; they are usually repeats but may differ in a detail not shown here. Identical values can stand only once.

What is called Kd is the constant that tells how readily two partners part at equilibrium. Usually koff stands for a measure of how fast the partners let go of each other. For orientation: kon means a measure of how fast the partners come together.

The target in the first experiment is T1, recombinant human FGF23 (R179Q). Nature of the experiment: SPR, antibody captured on hIgG chip, rhFGF23(R179Q) analyte.
Take B1: the Kd was 0.0208 nM, the “Ratio (variant antibody KD/burosumab KD)” value is 1, the “SA (surface activity)” value was 88.8% and the koff came out at 0.000157 s⁻¹. Besides, the kon was 7.22e+06 M⁻¹ s⁻¹.

The target is the same in a further experiment. The description is as above. The source holds these as a separate data set.
As for B2, the Kd is 0.0363 nM and 0.0448 nM; the off-rate constant (koff) was 0.000175 s⁻¹ and 0.00022 s⁻¹; the association rate constant (kon) is 4.82e+06 M⁻¹ s⁻¹ and 4.92e+06 M⁻¹ s⁻¹.
On to B3, for which the Kd came out at 0.0183 nM, the “Ratio (variant antibody KD/burosumab KD)” value is 1, the “SA (surface activity)” value was 95.8% and the koff was determined as 0.000253 s⁻¹. For the same molecule, the association rate constant (kon) was determined as 1.39e+07 M⁻¹ s⁻¹.
Turning to B4, the Kd amounted to 0.202 nM, the “Ratio (variant antibody KD/burosumab KD)” value stood at 0, the “SA (surface activity)” value was 84.8% and the off-rate constant (koff) stood at 0.000733 s⁻¹. The kon amounted to 3.63e+06 M⁻¹ s⁻¹.
Consider B5, for which the equilibrium dissociation constant (Kd) came to 0.0332 nM, the “Ratio (variant antibody KD/burosumab KD)” value is 1, the “SA (surface activity)” value came out at 89.9% and the koff is 0.00017 s⁻¹. The association rate constant (kon) was determined as 5.14e+06 M⁻¹ s⁻¹.
As for B6, the dissociation constant Kd is 0.0348 nM, the “Ratio (variant antibody KD/burosumab KD)” value came to 1, the “SA (surface activity)” value came to 88.4% and the off-rate constant (koff) amounted to 0.000358 s⁻¹. Also, the kon stood at 1.03e+07 M⁻¹ s⁻¹.
Take B7: the equilibrium dissociation constant (Kd) was 0.0226 nM and 0.0251 nM; the “Ratio (variant antibody KD/burosumab KD)” value is 1; the koff is 0.000224 s⁻¹ and 0.000222 s⁻¹; the kon is 9.91e+06 M⁻¹ s⁻¹ and 8.83e+06 M⁻¹ s⁻¹.
As for B8, the Kd came to 3.08 nM, the “Ratio (variant antibody KD/burosumab KD)” value was found to be 0, the “SA (surface activity)” value worked out at 92.7% and the koff came to 0.0103 s⁻¹. Further, the association rate constant (kon) was determined as 3.35e+06 M⁻¹ s⁻¹.
With B9, the Kd came to 0.0176 nM, the “Ratio (variant antibody KD/burosumab KD)” value was 1, the “SA (surface activity)” value is 85% and the dissociation rate constant (koff) stood at 0.000122 s⁻¹. Moreover, the kon is 6.93e+06 M⁻¹ s⁻¹.
As to B10, the equilibrium dissociation constant (Kd) is 0.0142 nM and 0.0147 nM and 0.0146 nM; the “Ratio (variant antibody KD/burosumab KD)” value was found to be 1; the koff is 8.7e-05 s⁻¹ and 9.61e-05 s⁻¹ and 9.01e-05 s⁻¹; the kon is 6.2e+06 M⁻¹ s⁻¹ (2×) and 6.5e+06 M⁻¹ s⁻¹.
B11: the dissociation constant Kd came to 0.0416 nM, the “Ratio (variant antibody KD/burosumab KD)” value came to 0, the “SA (surface activity)” value was found to be 91.2% and the dissociation rate constant (koff) was 0.000262 s⁻¹. The kon was found to be 6.29e+06 M⁻¹ s⁻¹.
As to B12, the Kd was 0.0336 nM, the “Ratio (variant antibody KD/burosumab KD)” value was determined as 1, the “SA (surface activity)” value was determined as 91.9% and the off-rate (koff) was 0.00019 s⁻¹. Moreover, the on-rate constant (kon) amounted to 5.64e+06 M⁻¹ s⁻¹.
The like results for B13 were, in that order, 0.0212 nM, 1, 85.6%, 0.000134 s⁻¹ and 6.33e+06 M⁻¹ s⁻¹.
Take B14: the Kd stood at 20.6 nM, the “Ratio (variant antibody KD/burosumab KD)” value is 0, the “SA (surface activity)” value turned out to be 82.3% and the dissociation rate constant (koff) was 0.0236 s⁻¹. Besides, the on-rate (kon) stood at 1.15e+06 M⁻¹ s⁻¹.
In the case of B15, the dissociation constant (Kd) came out at 0.0986 nM, the “Ratio (variant antibody KD/burosumab KD)” value amounted to 0, the “SA (surface activity)” value was determined as 88.4% and the koff is 0.000472 s⁻¹. For the same molecule, the kon was 4.79e+06 M⁻¹ s⁻¹.
With B16, the Kd was 0.0272 nM, the “Ratio (variant antibody KD/burosumab KD)” value was found to be 1, the “SA (surface activity)” value amounted to 91.2% and the off-rate constant (koff) was found to be 0.000181 s⁻¹. The kon was determined as 6.65e+06 M⁻¹ s⁻¹.
The like results for B17 were, in that order, 0.0235 nM, 1, 100%, 0.000181 s⁻¹ and 7.71e+06 M⁻¹ s⁻¹.
As to B18, the equilibrium dissociation constant (Kd) amounted to 0.0255 nM, the “Ratio (variant antibody KD/burosumab KD)” value stood at 1, the “SA (surface activity)” value amounted to 90.3% and the koff amounted to 0.000212 s⁻¹. Also, the on-rate (kon) was 8.32e+06 M⁻¹ s⁻¹.
Take B19: the Kd turned out to be 0.061 nM, the “Ratio (variant antibody KD/burosumab KD)” value worked out at 0, the “SA (surface activity)” value is 84.2% and the off-rate (koff) amounted to 0.000267 s⁻¹. The kon came out at 4.38e+06 M⁻¹ s⁻¹.
With B20, the Kd stood at 0.112 nM, the “Ratio (variant antibody KD/burosumab KD)” value was found to be 0, the “SA (surface activity)” value came out at 83.7% and the koff was found to be 0.000322 s⁻¹. For the same molecule, the kon turned out to be 2.87e+06 M⁻¹ s⁻¹.
Take B21: the Kd was 0.0504 nM and 0.0703 nM; the “Ratio (variant antibody KD/burosumab KD)” value worked out at 0; the koff was 0.000169 s⁻¹ and 0.000204 s⁻¹; the on-rate constant (kon) was 3.35e+06 M⁻¹ s⁻¹ and 2.9e+06 M⁻¹ s⁻¹.
Take B22: the dissociation constant Kd turned out to be 0.0224 nM, the “Ratio (variant antibody KD/burosumab KD)” value is 1, the “SA (surface activity)” value came to 93.1% and the dissociation rate constant (koff) was determined as 0.000196 s⁻¹. Besides, the kon was 8.77e+06 M⁻¹ s⁻¹.
On to B23, for which the on-rate (kon) is 2.63e+06 M⁻¹ s⁻¹ and 2.27e+06 M⁻¹ s⁻¹.
In the case of B24, the equilibrium dissociation constant (Kd) worked out at 0.0393 nM, the “Ratio (variant antibody KD/burosumab KD)” value turned out to be 1, the “SA (surface activity)” value came out at 95.7% and the koff is 0.000266 s⁻¹. In addition, the on-rate (kon) is 6.78e+06 M⁻¹ s⁻¹.
Regarding B25, the Kd was determined as 0.0319 nM, the “Ratio (variant antibody KD/burosumab KD)” value was found to be 1, the “SA (surface activity)” value is 86.5% and the koff is 0.000161 s⁻¹. Further, the on-rate (kon) came to 5.04e+06 M⁻¹ s⁻¹.
